Legend:
[1] = test system: normal splenic stromal cells; assay: IL-8 and CXCL1 mRNA and protein levels in normal splenic stromal cells treated with LCN2; assay type: cell-based, human; details: treatment with LCN2, FIGS. 3A and 3B
From the text: FIGS. 3A, 3B, and 3C illustrate that reduction of IL-8 blocks VEGF, which is involved in the development of splenic endothelial cells (EC)/MF HSC niches. FIGS. 3A and 3B illustrate that LCN2 increases IL-8 and CXCL1 protein and mRNA levels in spleen stromal cells. Con: left bars. LCN2: right bars. FIG. 3C illustrates that IL-8 regulates VEGF expression. si=silencing. Ab=antibody. Con=control.
Lipocalin2 (LCN2) is a cytokine produced by MF marrow myeloid cells. Levels of LCN2 are 2-3 fold greater in the circulation of MF patients as compared to PV and ET patients and even higher as compared to healthy controls. […] IL-8 and the related chemokine CXCL1 are pro-angiogenic creating a cascade of cytokines (VEGF) contributing to the development of splenic EC/MF HSC niches. […] The positive impact of IL-8 on VEGF expression was blocked by an IL-8 neutralizing antibody.

[2] = test system: MF CD34+ cells co-cultured with splenic EC; assay: Proliferation of MF CD34+ cells co-cultured with LCN2 treated splenic endothelial cells; assay type: cell-based, human; details: LCN2 treated endothelial cells, FIG. 4B
From the text: FIGS. 4A and 4B illustrate that addition of a CXCR1/CXCR2 inhibitor reverses effects of IL-8 on MF CD34^+ cells proliferation and lineage differentiation. FIG. 4A illustrates that IL-8 decreased the fraction of normal CD34^+, CD41^+, and CD33^+ cells, but increased the fraction of MF CD34^+, CD41^+, and CD33^+ cells. The effects of IL-8 were eliminated by the addition of the CXCR1/CXCR2 inhibitor ladarixin (Ladx). Normal CD34/CD41/CD33: left bars. MF CD34/CD41/CD33: Right bars. FIG. 4B illustrates that splenic endothelial cells (ECs) promote the proliferation of hematopoietic CD34^+ cells. Shown is fold change in CD34^+ cells cultured alone in the absence of cytokines and that the numbers are increased when the CD34^+ cells were co-cultured with LCN2 treated endothelial cells. The effects of co-cultivation with ECs were eliminated by addition of the CXCR1/CXCR2 antagonist reparixin (RPX).
Similarly, while treatment with LCN2 enhances endothelial cell (EC)-mediated proliferation of MF cells, treatment with the CXCR1/CXCR2 inhibitor reparixin decreased MF CD34^+ proliferation when co-cultured with splenic EC (FIG. 4B).

B1: LCN2: Lipocalin2 (LCN2) is a cytokine produced by MF marrow myeloid cells (protein, UniProt P80188 21-198, looked up)
Neutrophil …: QDSTSDLIPAPPLSKVPLQQNFQDNQFQGKWYVVGLAGNAILREDKDPQKMYATIYELKEDKSYNVTSVLFRKKKCDYWIRTFVPGCQPGEFTLGNIKSYPGLTSYLVRVVSTNYNQHAMVFFKKVSQNREYFKITLYGRTKELTSELKENFIRFSKSLGLPENHIVFPVPIDQCIDG
CXCL1 mRNA and protein levels [1]: significant increase | IL-8 mRNA and protein levels [1]: significant increase | endothelial cell (EC)-mediated proliferation of MF cells [2]: enhances

Reference: patent US20240115527A1, “CXCR1/CXCR2 INHIBITORS FOR USE IN TREATING MYELOFIBROSIS” (Icahn School of Medicine at Mount Sinai, priority 2020, published 2024)
